The target of the test is recombinant soluble CD146 (UniProt P43121). Put plainly: ELISA; in-house ELISA: binding of αvβ3 to rsCD146, dissociation constant estimated; methods in Additional file 1, not shown.

As usually defined, the Kd is the concentration at which binding is half-saturated. “integrin αvβ3 (protein used in the in-house ELISA) (from UniProt P06756 31-1048; P05106 27-788) (receptor)”: the Kd is 1.8 nM.
